{"source": "the DeepSol protein solubility set", "data": [{"assay": "soluble on expression in E. coli; label from the status in PepcDB or PDB records", "values": [{"sequence": "MGSDKIHHHHHHMNILVTGANGFVGQTLCPALERAGLRAVRAVRISTRYEEISVGEVDGETSWSRVFDEGIDGVVHLAAKVPLAEKEKEAADSYHRVNTLGTVRLARECAARGIRRFVFISTVKVLGEECDKPFQADDSAVPSDAYAISKWEAEQSLRQISAETGMEVVILRPPLVYGPGVGGNFLRLLQMVDRRIPLPLGAIHNRRSLIYLGNLVDIIRLCLTHPDAASKTFMVSDGEDVSTPGLIRRIGSVLGHGSFLLPVPAAWMRRVGDLLGKRSAIDRLTGSLSVDSMPVQKELGWLPPYGMQAGLALTVQWYRQHKPETKS", "soluble on expression in E. coli": "not soluble"}, {"sequence": "MYSMLKRVITEKDLLRQIRLLEQLLNVPQLTAKRLAAQIQTTERTVFSDLQYIRSQLPADWSIETDSSGIRLRNQGNAQTNELWSLFLPQSISIQLLKELLFTKELVTTSFLSTSGVSYETLKRHIKKMNQALRDFHLTIQLTTMTIQLIGAESNIRIFYHRLLVPFTHNNYFFDDYSIHEEHYFQFLKQVYSSELTVETEEIFGACWFFINTIRNKANCRVSQFSFDSKDVLFQLYQPSLAKLYASEGIYLQGEESFFAFFCFLESWNYDNVYGETLASALHTHYSQLRKSLQQFVTNLSTEEARPDLIQTNLLDNLLLLFIKYTESPTLSEQFQLEYQELMTEQAAEDLALSKSNQELLEILSRYTTIEEPTYFLSLASLLEKQAIYSIQAQTMTAYFLFQGEPAWKAFLQQELAAYLGTRVKLQAIEYVELSQLTLNEADIIISNFPLDHLDLPVFYLSLIPTKNELRRLAELTLHSYF", "soluble on expression in E. coli": "soluble"}, {"sequence": "MSLGLIVQKFGGTSVGSVEKIQNAANRAIAEKQKGHQVVVVVSAMGKSTDELVSLAKAISDQPSKREMDMLLATGEQVTISLLSMALQEKGYDAVSYTGWQAGIRTEAIHGNARITDIDTSVLADQLEKGKIVIVAGFQGMTEDCEITTLGRGGSDTTAVALAAALKADKCDIYTDVPGVFTTDPRYVKSARKLEGISYDEMLELANLGAGVLHPRAVEFAKNYQVPLEVRSSTETEAGTLIEEESSMEQNLIVRGIAFEDQITRVTIYGLTSGLTTLSTIFTTLAKRNINVDIIIQTQAEDKTGISFSVKTEDADQTVAVLEEYKDALEFEKIETESKLAKVSIVGSGMVSNPGVAAEMFAVLAQKNILIKMVSTSEIKVSTVVSENDMVKAVESLHDAFELSKHPSAVEGHHHHHH", "soluble on expression in E. coli": "soluble"}, {"sequence": "MSLSLDFSDNTFQPLAARMRPENLAQYIGQQHLLAAGKPLPRAIEAGHLHSMILWGPPGTGKTTLAEVIARYANADVERISAVTSGVKEIREAIERARQNRNAGRRTILFVDEVHRFNKSQQDAFLPHIEDGTITFIGATTENPSFELNSALLSRARVYLLKSLSTEDIEQVLTQAMEDKTRGYGGQDIVLPDETRRAIAELVNGDARRALNTLEMMADMAEVDDSGKRVLKPELLTEIAGERSARFDNKGDRFYDLISALHKSVRGSAPDAALYWYARIITAGGDPLYVARRCLAIASEDVGNADPRAMQVAIAAWDCFTRVGPAEGERAIAQAIVYLACAPKSNAVYTAFKAALADARERPDYDVPVHLRNAPTKLMKEMGYGQEYRYAHDEANAYAAGEVYFPPEIAQTRYYFPTNRGLEGKIGEKLAWLAEQDQNEGHHHHHH", "soluble on expression in E. coli": "soluble"}, {"sequence": "MAEHPIQGLMETAMESIKEMVDVNTIVGDAVQAPDGTVIIPISKVTFGFAAGGGEFASCCSVDEKGEDSSDDSSKPEIKFPFAGGSGAGVSINPVAFMVVGQGQIKLLPVNINSSLEKILDLIPEIIEKTKDSVKKNLKVKKEIKPGNGESCAKSSKEDENELEHHHHHH", "soluble on expression in E. coli": "soluble"}, {"sequence": "MKYIIIGLGNYGHVLAEELSALGHEIIGADISESRVDSIKDKVATAFVIDATDEQSLSVLPLNSVDIVVVAIGENFGASVRVVALLKQKKVPRIFARAIDAVHKAVLEAFSLEKILTPEEDAARSLVQLLDFGATMEAFRIDQDYYVVKFTVPKKFVGYFVNELNMDEEFHLKLIALKRANKVTNCLGISLMERHVKNELPGDEKVEEGDELVCYGKYRDFQSFWKAILEHHHHHH", "soluble on expression in E. coli": "soluble"}, {"sequence": "MGSDKIHHHHHHMKQTILDVDLLAFEQGTRFQQAAVVDGLMRSLGTGFVVTTSDLPSALLDEAYGMLNRFFALEATTKRQFNVPEAFGQTGYTDTLVETAAGEKLPDWKEMLNWAFPLPDNHPLRQRFPTLYPEQLLPEVAVPGITRVLQTFHQTIAELQCRVLRIIATGLGCHNDFFTDLVQDAPTLTRAIRYPPMSEAPAAGHMWAAAHGDINLITALPRATAPGLQVYIDGSWVDAIAPEGQVIVNSGLMLERISNGLIPTGWHRVLAPSQANLERLSVVQFCHPKPSTLLTPLSNCVNESHPQRFAGVMAADALEEVLYKIKLMA", "soluble on expression in E. coli": "not soluble"}, {"sequence": "MSLTDAKHGETIQGPMSYGHWIAGRETHSGGASFPSHNPTTGAEWGRFALGSQDTVGDAVAAATAAFEGAEWSSLSPTRRGRLMMRWGDAIAQHAEKLGALETSQNGKLLSEMVLQARIVPDWLYYYGGLADKIEGRVIPVERRSVLNYTRREALGVVGVIMPWNSPLFLTTMAVAPALAAGNTVVIKPSEVSSASIIEAVKLAEQIGFPRGVLNVVTGGRETAEALIDHCGVAKIAFTGGVEAGRAVGVRAARRMAQVTLELGGKSANIVFPDADLAQARAGLLAGIFAAAGQTCVAGSRAFVHRSIHDRLLAELAERAKNIRIGNPLDPATQMGPVATKAQLDKDESMVRRAIDEGAQVVHGGCRAAVDGFPGGYFYTPTILTGVSPGSYIAQNEVFGPVLSVIPFDDEDEVIALANGTGFGLAAGIWSLNIRQAHRVANQLQAGTVWVNMYRAMSFNSPFGGYKASGIGRQNGIEAIDSYLQTKSIWCELSQEEGHHHHHH", "soluble on expression in E. coli": "not soluble"}, {"sequence": "IRSFATHAQLPISIVNREDDAFLNPNFRFIDHSIIGKNVPVADQSFRVGCSCASDEECMYSTCQCLDEMAPDSDEEADPYTRKKRFAYYSQGAKKGLLRDRVLQSQEPIYECHQGCACSKDCPNRVVERGRTVPLQIFRTKDRGWGVKCPVNIKRGQFVDRYLGEIITSEEADRRRAESTIARRKDVYLFALDKFSDPDSLDPLLAGQPLEVDGEYMSGPTRFINHSCDPNMAIFARVGDHADKHIHDLALFAIKDIPKGTELTFDYVNGLTGLESDAHDPSKISEMTKCLCGTAKCRGYLW", "soluble on expression in E. coli": "soluble"}, {"sequence": "MNVSIKNTDAVNAIATVAIEKADYANEVEKALRTYRQRANVPGFRKGMVPMGMIKKMYGKGVKAEEINRVVGRELYRYIAENKLNVLGEPMPNEELQKEYDFDTTDDFEFVFDLALSPVVDVVVDKSIRVPYYTIQPTEEMIDRQIESMRSSYGHSVEADEVTANDVVKGRLCELEDGQPKEGGICVEEAMLLPAYMKDEEEKNKFVGAAKNSVVVFNPSKAYNNNEYELSSLLKVDKSAIGEHTGDFSFEISSISRHEKAELNEEFFKQAFGEETDIKNEADLRVKVTEGVREQFTAESDYKFLIDLRRELEAQVGELQFPDALLKRWLKLSHTEWSDEELEKQYPAMIKDLTFHVIKEDLVKKNDIVVTPQEVRNFAIIVAKNQFAQYGMSAVPQDALERYANTMMEKEDARRNFFDRVTENKLAAALKEKLDIDAKTVSPDEFNKLMTEQPASAE", "soluble on expression in E. coli": "not soluble"}, {"sequence": "MGIPILKLGECLLISIQSELDDHTAVEFQEDLLAKIHETSARGVVIDITSIDFIDSFIAKILGDVVSMSKLMGAKVVVTGIQPAVAITLIELGITFSGVLSAMDLESGLEKLKQELGE", "soluble on expression in E. coli": "not soluble"}, {"sequence": "MSKKVAIVGAGPGGLATAIRLAGLGYQVEIFEAAERVGGRMRGFEVDSYAFDTGPTILQLPHLYKELFEEAGLNFADYVQLKRLEPYTRLKFWDGTQLDITSDLQSFKTQLATLRSDLPLAFDRWYSEHIRKYELGYKPYLAGPARSIFGYLRPDELMKFLSFRPWENLYQHFWRFFQDERLVYALSYPSKYLGMHPTVASSVFSLIPFLEFSQGVWHPVGGFRALAQGLANAAQDLGVKIHLHSPVHQIWIEQGQVRGLELADASRHQFDTVVINADFAYAVRHLLPTSARGRYTDNKLGQMQFSCSTFMLYLGINRRYEDLPHHQIYLSDNIRRLERPWVDDSALDETDPPFYVCNPTIIDPSNAPAGHSTLFVLVPIPNTSYAVDWDIKQKSYTDFILKRLHLLGYHNIEQHIVTQSCYTAQSWLDDYRVHLGAVFNLSHNLTQLGPFRPPIRSENIAGLYWIGGAVHPGSGLLTILEASRSAAGFIHQDFASTGSLEHHHHHH", "soluble on expression in E. coli": "not soluble"}, {"sequence": "MAHHHHHHMSWAALVKSIKPEEATNFTAKPRVTVFAVDPSQNDAERQLQNPQHETAEVKLPSFSKGLLILDANAIIKGMDNFVSTADALVTTPQVIAEIKDRASRELMERLPHKVTVLDPTPEAVAAVVACAERTGDFGAMSRTDIRLCALALECCKVGGFLGEPIEPRPPQVNPRNDDKVQVMTEEMGEDGSNDERAKSETAHAQGASSSAMPGWGDWSDEAKETDGEGGAGAAEEDDGEGEWITPENIQDVQSGTRGAGRAFEAGMACVTSDYAMQNTLMHLGVPIVGTNGIHIRELRLWMMRCTACFTLVVDTTRQFCPECGSGDTLRRVNYVVNDQGEKKLYINFRKRISTRGTIYNLPRPRGGTHGTNRNLVLREDQLAHVIRGTTSSKVKAHQVMQNDDGALATFGEAPKLKKKNLADPRAYSSYHRYNVNEKKKVRAAHRK", "soluble on expression in E. coli": "soluble"}, {"sequence": "MSLQSLIGLMRPETGKKLENLNHFIQQFEKVLIAFSGGVDSSTLAAVCSNAGVEVLAVTVLSSVSPRREMEEAKRIAEELGVRHEFLKIDLMDEDFRRNDENRCYYCKRRVLSALVEEAKKRGIEVVLEGTNASDLSDHRPGYRAVRELDGVNSPWVEFGITKEEIREIARSMGYSFHDKPSMACLASRIPFGIEIDEEKLKMVDEAEEAVIELAGVKQVRVRNYDGVAVVEVAGDELRKLLNCAEKVRDKLKKIGFRAVLIDLEGYRSGKRLFKFEGHHHHHH", "soluble on expression in E. coli": "soluble"}, {"sequence": "MILKLKYYREAMNLTQEELARHAKVSVAMVQSMENGRRKGSTDTILKLSDALNVTVDDLLRGNNMTISHKKETSK", "soluble on expression in E. coli": "not soluble"}, {"sequence": "MGSDKIHHHHHHMKILQIVPSISLIYGGPSQMVLGLAPALVKEGVEVTILTTDSNGDNGQTPLDVPLNRPIKQDGYEIIYFRCAPFRRYKFSLDLLKWLKRHAHEFDLAHIHALFSPIISAAAIVCRQQKLPYIFRPLGTLDPADLRKKKQLKQLYVAIIERQNLASAAAIHFTSEQEAKISERFGVSTPDLVIPLGVIPRQSSLKNVCSQLEIPKDVPLVLFMSRIDPKKGLNLLIPALEKLLAVGYKFHFVLAGTNPQDPDYEQKIISQIQNSPLRSHTTITGFVTGELKVSLLQAADLFVLPSYYENFGIAVAEAMVAGVPVVISDQVHICQQIRDSESGWVGATDVQALVELLQAALQNPAERQRRGLNAQKYALENFSWDAIARQTIQAYQKILANK", "soluble on expression in E. coli": "not soluble"}, {"sequence": "MQQLLISILEDLNNTSTDIIASAVISTDGLPMATMLPSHLNSDRVGAISATLLALGSRSVQELACGELEQVMIKGKSGYILLSQAGKDAVLVLVAKETGRLGLILLDAKRAARHIAEAI", "soluble on expression in E. coli": "not soluble"}, {"sequence": "AMEVHPISEFASPFEVFKCIERDFKVAGLLESIGGPQYKARYSVIAWSTNGYLKIHDDPVNILNGYLKDLKLADIPGLFKGGMIGYISYDAVRFWEKIRDLKPAAEDWPYAEFFTPDNIIIYDHNEGKVYVNADLSSVGGCGDIGEFKVSFYDESLNKNSYERIVSESLEYIRSGYIFQVVLSRFYRYIFSGDPLRIYYNLRRINPSPYMFYLKFDEKYLIGSSPELLFRVQDNIVETYPIAGTRPRGADQEEDLKLELELMNSEKDKAEHLMLVDLARNDLGKVCVPGTVKVPELMYVEKYSHVQHIVSKVIGTLKKKYNALNVLSATFPAGTVSGAPKPMAMNIIETLEEYKRGPYAGAVGFISADGNAEFAIAIRTAFLNKELLRIHAGAGIVYDSNPESEYFETEHKLKALKTAIGVR", "soluble on expression in E. coli": "soluble"}]}]}
